Data reported in patent US20090130105A1.
Values belong to the binder of their own block, whether it stands above or below them.

Biological target: All other mutant IGF-1R constructs
Experiment: SPR, Fab over captured mutant hIGF-1R-Fc; all of SD001-SD019 other than SD015

Kd: 5 nM
B1: M14-C03 Fab (Fab, V domains shown)
VH: EVQLLESGGGLVQPGGSLRLSCAASGFTFSKYMMSWVRQAPGKGLEWVSYISPSGGLTWYADSVKGRFTISRDNSKNTLYLQMNSLRAEDTAVYYCARDGARGYGMDVWGQGTTVTVSS
VL: DIQMTQSPATLSLSPGERATLSCRASQSVSSYLAWYQQKPGQAPRLLIYDASNRATGIPARFSGSGSGTDFTLTISSLEPEDFAVYYCQQRSNWPPEVTFGPGTKVDIK

Kd: 1 nM
B2: M13-C06 Fab (Fab, V domains shown)
VH: EVQLLESGGGLVQPGGSLRLSCAASGFTFSIYRMQWVRQAPGKGLEWVSGISPSGGTTWYADSVKGRFTISRDNSKNTLYLQMNSLRAEDTAVYYCARWSGGSGYAFDIWGQGTMVTVSS
VL: DIQMTQSPLSLSASVGDRVTITCQASRDIRNYLNWYQQKPGKAPKLLIYDASSLQTGVPSRFGGSGSGTDFSFTIGSLQPEDIATYYCQQFDSLPHTFGQGTKLEIK
